Consider 3 molecules from patent US20240190939A1 (SHATTUCK LABS, published 2024).

The target in test [1] is T1, mouse CD47 on CHO-K1 cells (mouse, UniProt Q61735 19-303).
T1 construct: whole, on cells; also called mCD47 engineered cell line; mCD47 over-expressing cell line
T1 sequence (looked up): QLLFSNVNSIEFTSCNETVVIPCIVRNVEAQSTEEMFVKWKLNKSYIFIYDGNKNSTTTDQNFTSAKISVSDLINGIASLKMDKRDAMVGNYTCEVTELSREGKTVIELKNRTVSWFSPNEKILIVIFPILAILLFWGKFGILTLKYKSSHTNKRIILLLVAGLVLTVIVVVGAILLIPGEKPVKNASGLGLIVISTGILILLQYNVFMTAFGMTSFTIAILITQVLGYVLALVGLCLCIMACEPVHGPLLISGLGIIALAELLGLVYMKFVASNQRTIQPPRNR
Kind of test: flow cytometry on CHO-K1 cells expressing murine CD47. A general note: Flow cytometry measures light scatter and fluorescence of single cells or particles in a stream.

Another test has as its target T2, CD47-His.
T2 construct: ELISA capture protein used with both murine and human chimeras
Kind of test: ELISA: CD47-His capture, IgG detection. In general terms: An ELISA detects its analyte on a solid surface through an enzyme-linked reagent.

A further test concerns the target T3, recombinant CD155.
T3 construct: also called CD155/PVR
Nature of the test: ELISA: CD155/PVR capture, Fc-HRP detection.

The target of test [2] is T4, mouse PVR on CHO-K1 cells (mouse).
T4 construct: whole, on cells; also called CHOK1/PVR; mPVR engineered cell line
Kind of test: flow cytometry on CHO-K1 cells expressing murine PVR.

The target in test [3] is T5, human PD-L1 on CHO-K1 cells (human, UniProt Q9NZQ7 19-290).
T5 construct: whole, on cells; also called hPD-L1 engineered cell line; hPD-L1 over-expressing cell line
T5 sequence (Q9NZQ7 19-290): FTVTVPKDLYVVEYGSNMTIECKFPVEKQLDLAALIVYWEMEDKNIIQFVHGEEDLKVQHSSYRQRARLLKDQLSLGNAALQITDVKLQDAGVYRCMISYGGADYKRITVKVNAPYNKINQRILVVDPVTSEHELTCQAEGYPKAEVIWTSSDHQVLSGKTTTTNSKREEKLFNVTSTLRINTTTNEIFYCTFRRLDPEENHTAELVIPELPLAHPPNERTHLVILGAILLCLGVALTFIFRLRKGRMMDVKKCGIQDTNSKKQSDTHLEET
Nature of the test: flow cytometry on CHO-K1 cells expressing human PD-L1. The source says: Cells were collected, washed, and stained with antibodies for the detection of the chimeric protein binding by flow cytometry.

The next test has as its target T6, recombinant human PD-L2 (human, UniProt Q9BQ51 20-220).
T6 sequence (looked up): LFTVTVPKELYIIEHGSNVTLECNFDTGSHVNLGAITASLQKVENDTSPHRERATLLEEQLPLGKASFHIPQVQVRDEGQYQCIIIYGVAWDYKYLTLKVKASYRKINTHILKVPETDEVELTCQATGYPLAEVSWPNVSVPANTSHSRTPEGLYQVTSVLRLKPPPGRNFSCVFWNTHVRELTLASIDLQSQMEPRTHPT
Nature of the test: biolayer interferometry (Octet), recombinant human PD-L2. For orientation: Biolayer interferometry detects binding as a change in optical thickness at a sensor tip.

Another test has as its target T7, hPDL1-Fc (human, UniProt Q9NZQ7 19-238).
T7 construct: not shown: Fc, not identified
Nature of the test: Dual ELISA: hPDL1-Fc capture, hLTBR-His detection, 6x His HRP (signal needs both hPDL1-Fc and hLTBR-His bound). The procedure: For each chimeric protein ELISAs were performed under the following conditions: Heavy+Light Chain captured and detected with Fc-HRP (FIG. 13A and FIG. 13B, top left), a murine LTBR-His captured and detected with an antibody directed to murine LIGHT (FIG. 13A, top right) or human LTBR-His captured and detected with biotinylated human LIGHT (FIG. 138, top right), and mPD-L1 captured and detected with an antibody directed to mLIGHT (FIG. 13A, bottom left; “Dual ELISA”) or hPDL1-Fc captured and detected with hLTBR-His/6×His-HRP (FIG. 13A, bottom left; “Dual ELISA”).

The next test concerns the target T8, human LTBR-His (human, UniProt P36941 31-227, limits assumed).
T8 construct: also called hLTBR-His
Kind of test: ELISA: hLTBR-Fc His Tag capture, 'hLIGHT Biotinylated' detection, streptavidin HRP.

T7 sequence (Q9NZQ7 19-238 limits assumed): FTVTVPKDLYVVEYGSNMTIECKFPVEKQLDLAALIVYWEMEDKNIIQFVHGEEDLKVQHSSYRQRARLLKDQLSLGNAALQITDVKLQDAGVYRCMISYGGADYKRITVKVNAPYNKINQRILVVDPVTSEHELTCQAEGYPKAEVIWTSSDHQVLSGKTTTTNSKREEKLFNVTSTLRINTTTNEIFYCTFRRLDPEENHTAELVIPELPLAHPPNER
T8 sequence (P36941 31-227 limits assumed): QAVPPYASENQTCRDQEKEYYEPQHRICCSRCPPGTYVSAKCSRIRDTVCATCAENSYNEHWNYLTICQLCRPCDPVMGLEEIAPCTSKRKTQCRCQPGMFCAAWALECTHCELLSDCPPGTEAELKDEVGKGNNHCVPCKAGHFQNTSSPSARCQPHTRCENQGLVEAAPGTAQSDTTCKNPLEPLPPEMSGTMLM

B1: murine CD172a(SIRPα)-Fc-LIGHT chimeric protein (Fc fusion)
chain 1: KELKVTQPEKSVSVAAGDSTVLNCTLTSLLPVGPIRWYRGVGPSRLLIYSFAGEYVPRIRNVSDTTKRNNMDFSIRISNVTPADAGIYYCVKFQKGSSEPDTEIQSGGGTEVYVLAKPSPPEVSGPADRGIPDQKVNFTCKSHGFSPRNITLKWFKDGQELHPLETTVNPSGKNVSYNISSTVRVVLNSMDVNSKVICEVAHITLDRSPLRGIANLSNFIRVSPTVKVTQQSPTSMNQVNLTCRAERFYPEDLQLIWLENGNVSRNDTPKNLTKNTDGTYNYTSLFLVNSSAHREDVVFTCQVKHDQQPAITRNHTVLGFAHSSDQGSMQTFPDNNATHNWN
chain 2: LHQRLGDIVAHLPDGGKGSWEKLIQDQRSHQANPAAHLTGANASLIGIGGPLLWETRLGLAFLRGLTYHDGALVTMEPGYYYVYSKVQLSGVGCPQGLANGLPITHGLYKRTSRYPKELELLVSRRSPCGRANSSRVWWDSSFLGGVVHLEAGEEVVVRVPGNRLVRPRDGTRSYFGAFMV
Molecule B1 had an EC50 in test [1] of 18 nM. Further, the “EC50 (read off the curve)” value in the test with CD47-His was ~4 nM.

B2: murine TIGIT-Fc-LIGHT chimeric protein (Fc fusion)
chain 1: TIDTKRNISAEEGGSVILQCHFSSDTAEVTQVDWKQQDQLLAIYSVDLGWHVASVFSDRVVPGPSLGLTFQSLTMNDTGEYFCTYHTYPGGIYKGRIFLKVQESSDDRNGLAQFQTAPLG
chain 2: LHQRLGDIVAHLPDGGKGSWEKLIQDQRSHQANPAAHLTGANASLIGIGGPLLWETRLGLAFLRGLTYHDGALVTMEPGYYYVYSKVQLSGVGCPQGLANGLPITHGLYKRTSRYPKELELLVSRRSPCGRANSSRVWWDSSFLGGVVHLEAGEEVVVRVPGNRLVRPRDGTRSYFGAFMV
For the molecule B2, the “EC50 (read off the curve)” value in the test with recombinant CD155 is ~5 nM. In addition, the EC50 in test [2] stood at 215 nM.

B3: human PD-1-Fc-LIGHT chimeric protein (Fc fusion)
chain: LDSPDRPWNPPTFSPALLVVTEGDNATFTCSFSNTSESFVLNWYRMSPSNQTDKLAAFPEDRSQPGQDCRFRVTQLPNGRDFHMSVVRARRNDSGTYLCGAISLAPKAQIKESLRAELRVTERRAEVPTAHPSPSPRPAGQFQSKYGPPCPPCPAPEFLGGPSVFLFPPKPKDQLMISRTPEVTCVVVDVSQEDPEVQFNWYVDGVEVHNAKTKPREEQFNSTYRVVSVLTVLHQDWLSGKEYKCKVSSKGLPSSIEKTISNATGQPREPQVYTLPPSQEEMTKNQVSLTCLVKGFYPSDIAVEWESNGQPENNYKTTPPVLDSDGSFFLYSRLTVDKSRWQEGNVFSCSVLHEALHNHYTQKSLSLSLGKIEGRMDLQLHWRLGEMVTRLPDGPAGSWEQLIQERRSHEVNPAAHLTGANSSLTGSGGPLLWETQLGLAFLRGLSYHDGALVVTKAGYYYIYSKVQLGGVGCPLGLASTITHGLYKRTPRYPEELELLVSQQSPCGRATSSSRVWWDSSFLGGVVHLEAGEKVVVRVLDERLVRLRDGTRSYFGAFMV
notes: also called hPD-1-Fc-LIGHT
B3: the midpoint of the response in test [3], the EC50, lay at 48 nM. The binding result in the test with recombinant human PD-L2 is listed as “binds”. For the same molecule, the “EC50 (read off the curve)” value with hPDL1-Fc is ~10 nM; with human LTBR-His, ~20 nM.

For orientation: EC50 means the concentration at which the effect is half-maximal. A lower EC50 goes with a more potent agent. In general, EC50 (read off the curve) refers to the concentration needed to bring the measured effect to its halfway point.
